Experimental data: publication PMC4872099 (Nucleic Acids Research, 2016)
Substitutions are numbered along the chain they refer to. Names and notes keep the numbering of the source. Values joined by “and” are separate entries in the source; they are usually repeats but may differ in a detail not shown here. Equal entries are not always repeated.

B1: phage T4 small terminase (TerS) gp16, wild type (natural protein, bacteriophage T4, UniProt P17311 1-164, looked up)
chain: MEGLDINKLLDISDLPGIDGEEIKVYEPLQLVEVKSNPQNRTPDLEDDYGVVRRNMHFQQQMLMDAAKIFLETAKNADSPRHMEVFATLMGQMTTTNREILKLHKDMKDITSEQVGTKGAVPTGQMNIQNATVFMGSPTELMDEIGDAYEAQEAREKVINGTTD
B2: phage T4 gp16 mutant 3M (R98A, K102A, K108A) (natural protein, bacteriophage T4, UniProt P17311 1-164, looked up)
chain: B1 chain with R98A, K102A, K108A
B3: phage T4 gp16 mutant 4M (R98A, K102A, K105A, K108A) (natural protein, bacteriophage T4, UniProt P17311 1-164, looked up)
chain: B1 chain with R98A, K102A, K105A, K108A
B4: phage T4 gp16 N-C fusion (amino acids 36-118 deleted; lacks helix alpha1 and helix alpha2) (natural protein, bacteriophage T4, UniProt P17311 1-164, looked up)
chain: MEGLDINKLLDISDLPGIDGEEIKVYEPLQLVEVKGAVPTGQMNIQNATVFMGSPTELMDEIGDAYEAQEAREKVINGTTD

What was measured:
[1] = target: phage T4 gp16 oligomerization domain alone (N- and C-terminal domains deleted) (bacteriophage T4); assay: SEC
[2] = target: the molecule itself; assay: SEC

Molecule	binding result [2]	stoichiometry N [2]	further results
phage T4 gp16 oligomerization domain alone (N- and C-terminal domains deleted) (domain or fragment)			stoichiometry N [1]: 11 and 12
B1	binds		
B2	binds		
B3		~6	
B4		2	
